US20090092614A1 (Biogen, published 2009)

Key:
[1] = target: T1, human IGF-1R(1-903)-Fc (human, UniProt P08069 31-933); test: blocking ELISA, competitor 320 nM IGF-1
T1 construct: Made by Biogen Idec; also called hIGF-1R-Fc; IGF-1R-Fc

[2] = target: T1, human IGF-1R(1-903)-Fc; test: blocking ELISA, competitor 640 nM IGF-2
[3] = target: T2, hIGF-1R-Fc mutant SD203 (human, UniProt P08069 31-933); test: KD grade of mutant hIGF-1R-Fc; S = binding to antibody was ablated by mutation
T2 construct: build as m36 with the substitution; also called N254A

[4] = target: T3, hIGF-1R-Fc mutant SD207 (human, UniProt P08069 31-933); test: as above
T3 construct: build as m36 with the substitution; also called G265Y
T3 sequence (P08069 other isoform, or with tags, fused parts or gaps mutant limits assumed): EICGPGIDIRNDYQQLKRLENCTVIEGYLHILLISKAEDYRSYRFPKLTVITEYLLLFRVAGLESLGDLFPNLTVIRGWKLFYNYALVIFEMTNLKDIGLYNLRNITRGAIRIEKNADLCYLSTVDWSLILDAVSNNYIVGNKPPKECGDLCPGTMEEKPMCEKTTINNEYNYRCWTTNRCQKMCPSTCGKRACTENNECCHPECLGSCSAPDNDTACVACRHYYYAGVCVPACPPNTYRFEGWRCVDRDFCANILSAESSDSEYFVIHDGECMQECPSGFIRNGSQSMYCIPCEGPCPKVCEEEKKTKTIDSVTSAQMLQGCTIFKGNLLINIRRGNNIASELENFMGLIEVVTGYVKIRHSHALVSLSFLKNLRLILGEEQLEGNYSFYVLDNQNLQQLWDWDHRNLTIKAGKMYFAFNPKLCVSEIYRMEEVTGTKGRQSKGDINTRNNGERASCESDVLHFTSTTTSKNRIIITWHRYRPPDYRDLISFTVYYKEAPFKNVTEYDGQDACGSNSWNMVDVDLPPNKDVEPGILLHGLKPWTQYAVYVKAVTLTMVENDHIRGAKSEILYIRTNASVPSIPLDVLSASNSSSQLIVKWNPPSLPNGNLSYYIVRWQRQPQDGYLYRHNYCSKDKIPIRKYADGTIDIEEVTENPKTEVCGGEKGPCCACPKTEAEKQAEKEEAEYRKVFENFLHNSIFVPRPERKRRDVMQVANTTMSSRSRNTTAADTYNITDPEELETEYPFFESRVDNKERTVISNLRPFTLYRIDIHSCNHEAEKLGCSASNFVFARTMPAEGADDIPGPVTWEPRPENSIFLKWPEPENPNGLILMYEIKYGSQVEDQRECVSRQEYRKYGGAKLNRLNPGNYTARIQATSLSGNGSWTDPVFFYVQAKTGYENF

T1 sequence (P08069 31-933): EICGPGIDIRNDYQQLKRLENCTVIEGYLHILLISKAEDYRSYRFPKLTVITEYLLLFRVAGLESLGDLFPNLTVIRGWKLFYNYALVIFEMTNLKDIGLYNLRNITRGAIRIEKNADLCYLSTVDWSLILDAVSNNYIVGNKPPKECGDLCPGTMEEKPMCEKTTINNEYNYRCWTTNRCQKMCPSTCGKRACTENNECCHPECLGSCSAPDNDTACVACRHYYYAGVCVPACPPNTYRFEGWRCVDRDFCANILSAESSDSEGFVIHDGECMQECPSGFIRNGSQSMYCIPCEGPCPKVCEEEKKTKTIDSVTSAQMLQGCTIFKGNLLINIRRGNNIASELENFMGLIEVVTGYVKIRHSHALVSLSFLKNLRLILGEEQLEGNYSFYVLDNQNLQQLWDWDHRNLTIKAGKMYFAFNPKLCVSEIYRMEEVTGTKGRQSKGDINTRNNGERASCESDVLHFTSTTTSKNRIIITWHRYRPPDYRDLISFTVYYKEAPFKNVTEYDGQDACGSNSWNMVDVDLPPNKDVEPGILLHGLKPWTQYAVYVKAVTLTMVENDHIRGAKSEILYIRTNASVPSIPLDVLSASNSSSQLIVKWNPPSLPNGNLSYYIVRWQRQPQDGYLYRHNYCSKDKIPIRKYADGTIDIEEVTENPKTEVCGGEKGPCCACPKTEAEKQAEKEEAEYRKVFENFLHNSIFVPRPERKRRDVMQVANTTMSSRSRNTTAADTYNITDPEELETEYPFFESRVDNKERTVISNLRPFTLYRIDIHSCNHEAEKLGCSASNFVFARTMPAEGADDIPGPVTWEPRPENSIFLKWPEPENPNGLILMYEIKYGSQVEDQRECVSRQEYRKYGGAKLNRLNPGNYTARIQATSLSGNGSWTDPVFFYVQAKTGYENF
T2 sequence (P08069 other isoform, or with tags, fused parts or gaps mutant limits assumed): as the sequence (P08069 31-933) above, with N254A counted along it

B1: P1E2 (chimeric antibody) (antibody, V domains shown)
VH: QVQLQQPGAELVKPGASVKLSCKASGYTFTSYWMHWVKQRPGQGLEWIGEINPTYGRSNYNEKFKSKATLTVDKSSSTAYMQLSSLTSEDSAVYYCARLVRLRYFDVWGAGTTVTVSS
VL: DIVMTQAAFSNPVTLGTSASISCRSSKSLLHSNGITYLYWYLQKPGQSPQLLIYQMSNLASGVPDRFSSSGSGTDFTLRISRVEAEDVGVYYCAQNLELPYTFGGGTKLEIK
Question: How did the “% IGF-1 inhibition upon antibody saturation” value [1] turn out when B1 was run?
Answer: The value was 38%.

Question: And the “% IGF-2 inhibition upon antibody saturation” value [2]?
Answer: The value was ~50%.

Question: Does B1 bind [3]?
Answer: Result: no binding

Question: Does B1 bind [4]?
Answer: Result: no binding
